Here are results for six substances from publication PMC4371794.

In the assay the target is R499D-quad-PDE4D5. Description: yeast two-hybrid, quantitative β-galactosidase assay. The settings on record: parent: est. 18, read off a plot.

On to “PDE4D5 (wild-type, full-length; "long") (from UniProt Q08499-6) binder:N174A; binder:N175A; target:R173A; target:N174A; target:N175A; target:E228A; target:T229A; target:L230A; target:L306A; target:M307A; target:H308A; target:K323A; target:T324A; target:E325A; target:R499D”, for which, for the setting “bar labelled DD1 sequence RAA”, the response was 7.1 arbitrary. In the case of “PDE4D5 (wild-type, full-length; "long") (from UniProt Q08499-6) binder:N174A; target:R173A; target:N174A; target:N175A; target:E228A; target:T229A; target:L230A; target:L306A; target:M307A; target:H308A; target:K323A; target:T324A; target:E325A; target:R499D”, where the note is “bar labelled DD1 sequence RAN”, the response came to 1.9 arbitrary. Turning to “PDE4D5 (wild-type, full-length; "long") (from UniProt Q08499-6) binder:N175A; target:R173A; target:N174A; target:N175A; target:E228A; target:T229A; target:L230A; target:L306A; target:M307A; target:H308A; target:K323A; target:T324A; target:E325A; target:R499D”, the response (bar labelled DD1 sequence RNA) is 5.1 arbitrary.

Take “PDE4D5 (wild-type, full-length; "long") (from UniProt Q08499-6) binder:R173A; binder:N174A; binder:N175A; target:R173A; target:N174A; target:N175A; target:E228A; target:T229A; target:L230A; target:L306A; target:M307A; target:H308A; target:K323A; target:T324A; target:E325A; target:R499D”: the response (bar labelled DD1 sequence AAA) came to 1.1 arbitrary. “PDE4D5 (wild-type, full-length; "long") (from UniProt Q08499-6) binder:R173A; binder:N175A; target:R173A; target:N174A; target:N175A; target:E228A; target:T229A; target:L230A; target:L306A; target:M307A; target:H308A; target:K323A; target:T324A; target:E325A; target:R499D”: the response (bar labelled DD1 sequence ANA) came to 0.9 arbitrary. With “PDE4D5 (wild-type, full-length; "long") (from UniProt Q08499-6) binder:R173A; target:R173A; target:N174A; target:N175A; target:E228A; target:T229A; target:L230A; target:L306A; target:M307A; target:H308A; target:K323A; target:T324A; target:E325A; target:R499D”, where the note is “bar labelled DD1 sequence ANN”, the response turned out to be 5.4 arbitrary.
